# Paper PMC8257255, “Soluble Fas ligand drives autoantibody-induced arthritis by binding to DR5/TRAIL-R2” (eLife, 2021)
# Biological target: T1, Recombinant Human TRAIL R2/TNFRSF10B Fc Chimera Protein (human, UniProt O14763 56-210)
# T1 construct: TNFRSF10B (DR5, TRAIL R2), human, fused to Fc; also called rhDR5–Fc; DR5–Fc; source: bought: R&D Systems (631-T2)
# Test: SPR; Biacore T100; recombinant DR5 (R&D 631-T2-100) coupled to a CM5 chip in 10 mM sodium acetate pH 5.5; recombinant FasL or TRAIL passed over at 30 μL/min for 120 s; empty flow cell subtracted; equilibrium affinity measurements
# Conditions: both partners purified
binder,measurement,value
"recombinant human soluble Fas ligand (His-tagged) (ligand, UniProt P48023 130-281, looked up, Fas ligand (TNFSF6), human, soluble recombinant form; also called sFasL; rhFasL; source: bought: R&D Systems (126-FL)) QIGHPSPPPEKKELRKVAHLTGKSNSRSMPLEWEDTYGIVLLSGVKYKKGGLVINETGLYFVYSKVYFRGQSCNNLPLSHKVYMRNSKYPQDLVMMEGKMMSYCTTGQMWARSSYLGAVFNLTSADHLYVNVSELSLVNFEESQTFFGLYKL",Kd,1.23 pM
